These results are taken from patent US6632672.

This data set addresses T1, phiC31 integrase (Streptomyces phage phiC31) (UniProt Q9T221).
T1 sequence: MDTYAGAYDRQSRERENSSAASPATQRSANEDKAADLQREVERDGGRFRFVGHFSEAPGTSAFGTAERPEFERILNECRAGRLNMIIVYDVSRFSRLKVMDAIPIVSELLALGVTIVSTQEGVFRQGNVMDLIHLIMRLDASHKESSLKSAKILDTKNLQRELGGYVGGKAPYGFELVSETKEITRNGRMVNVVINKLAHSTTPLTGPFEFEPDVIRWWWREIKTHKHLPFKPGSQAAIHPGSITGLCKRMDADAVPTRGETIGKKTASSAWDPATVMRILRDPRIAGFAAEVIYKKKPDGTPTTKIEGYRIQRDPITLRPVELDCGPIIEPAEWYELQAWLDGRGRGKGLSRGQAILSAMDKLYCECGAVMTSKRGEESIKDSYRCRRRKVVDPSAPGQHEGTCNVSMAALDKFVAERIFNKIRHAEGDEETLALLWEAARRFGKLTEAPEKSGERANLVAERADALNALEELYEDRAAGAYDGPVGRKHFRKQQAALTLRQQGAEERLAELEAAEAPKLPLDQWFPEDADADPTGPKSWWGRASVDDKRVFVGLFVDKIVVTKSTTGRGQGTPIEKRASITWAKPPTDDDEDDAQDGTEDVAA
The experiment in a line: cell_activity.

The substance attB34 displayed a binding signal (E. coli, relative to full-length attB) of 100%. Turning to attB full length (pBCPB+), the activity (bimolecular integration of attP donor into EBV plasmid in human 293 cells, corrected for transfection) was 7.5% and the activity (intramolecular integration with attP in E. coli, all colonies white) amounted to 100%.

With attP full length (221 bp), the activity is 50.6% (intramolecular attB x attP recombination in human 293 cells, SE 2.32%, 16 experiments) and 100% (intramolecular integration with attB in E. coli, all colonies white).
